The source of these data is PMC5693285.

The subject of series [1] is His-VtrAN (Vibrio parahaemolyticus RIMD2210633?). As to the kind of experiment: EMSA. Particulars: EMSA: 10 mM Tris-HCl pH 7.5, 100 mM KCl, 1 mM DTT, 1 mM EDTA, 0.2% NP-40, 10% glycerol, 100 ng/ml BSA; 4 nM probe, protein 0-400 nM; 30 min room temperature; 6%.
The test system of series [2] is His-VtrAN-ZIPm (Vibrio parahaemolyticus RIMD2210633?; ZIP from Saccharomyces cerevisiae GCN4). As to the kind of experiment: EMSA. As to conditions: EMSA: 10 mM Tris-HCl pH 7.5, 100 mM KCl, 1 mM DTT, 1 mM EDTA, 0.2% NP-40, 10% glycerol, 100 ng/ml BSA; 4 nM probe, protein 0-400 nM; 30 min room temperature; 6%.

Take “AGGGGCTATGCCCCTTTTATTTTTAATTCTCAAAGTTATCTTTTGAAGGTAATGGGGTATTTTTGAATAACTACATTGGGGTGTGATTGTCCTCGTTGTTTTTTAGTTTTTTTTAGGTTTTTTTTGCTGCTTTTCACGGTTTTATCATCACTTTATTCCGTGATTTAGCAAAATTCTTTTTAGGAGTTTGAAGTGGTCGTCTTCATTACCACGGCTTTAAGAACAGAGACGTTCTCTTTTAATCACAATAAATAACGAAGAAAAACTGTGAAAAGGGCTCAGCG (double strand) [vtrB upstream region 284 bp]”: the binding in series [1] and in series [2] was more than 400 nM each time.
